We go through four sequences from the supplement of paper PMC5998384.

The subject of data set [1] is HeLa Kyoto. Nature of the data set: solubility change mitosis vs G1/S (difference of NP-40 vs SDS log2 ratios) (log2 ratio difference); higher = more soluble in mitosis.
The test system of data set [2] is HeLa Kyoto. Nature of the data set: melting temperature (median over replicates), in situ; higher = more thermally stable.
Data set [3] concerns HeLa Kyoto. The data set can be described thus: solubility in G1/S (NP-40 vs SDS abundance) (log2 ratio); higher = more soluble. The settings on record: cell cycle stage: G1/S.
Data set [4] has as its system HeLa Kyoto. Nature of the data set: thermal stability score vs G1/S (z-score of summed log2 fold changes over temperatures); higher = more thermally stable than in G1/S.
Setting [5] is: cell cycle stage: early G1 (4.5 h after nocodazole release).
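Wherever melting temperature (median over replicates), in situ is given: HeLa Kyoto cells synchronized by double thymidine or nocodazole block, proteins quantified by TMT10plex mass spectrometry, three independent biological replicates.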
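Wherever solubility change mitosis vs G1/S (difference of NP-40 vs SDS log2 ratios) is given: synchronized HeLa Kyoto cells (double thymidine block for G1/S, nocodazole release for mitosis), protein amounts in NP-40 versus SDS lysates quantified by mass spectrometry, three biological replicates.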
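Wherever solubility in G1/S (NP-40 vs SDS abundance) is given: HeLa Kyoto cells arrested at G1/S by double thymidine block, proteins quantified by TMT10plex mass spectrometry in mild NP-40 versus SDS extracts, three biological replicates.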
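Wherever thermal stability score vs G1/S (z-score of summed log2 fold changes over temperatures) is given: synchronized HeLa Kyoto cells, proteins quantified by TMT10plex mass spectrometry, three biological replicates, mitosis taken 0.5 h after nocodazole release, G1/S directly after double thymidine block.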

“MSELTKELMELVWGTKSSPGLSDTIFCRWTQGFVFSESEGSALEQFEGGPCAVIAPVQAFLLKKLLFSSEKSSWRDCSEEEQKELLCHTLCDILESACCDHSGSYCLVSWLRGKTTEETASISGSPAESSCQVEHSSALAVEELGFERFHALIQKRSFRSLPELKDAVLDQYSMWGNKFGVLLFLYSVLLTKGIENIKNEIEDASEPLIDPVYGHGSQSLINLLLTGHAVSNVWDGDRECSGMKLLGIHEQAAVGFLTLMEALRYCKVGSYLKSPKFPIWIVGSETHLTVFFAKDMALVAPEAPSEQARRVFQTYDPEDNGFIPDSLLEDVMKALDLVSDPEYINLMKNKLDPEGLGIILLGPFLQEFFPDQGSSGPESFTVYHYNGLKQSNYNEKVMYVEGTAVVMGFEDPMLQTDDTPIKRCLQTKWPYIELLWTTDRSPSLN [FAM188A]”: the “solubility change mitosis (log2)” value with HeLa Kyoto [1] is -0.147. In addition, the melting temperature in the data set on HeLa Kyoto [2] (cell cycle stage: mitosis) worked out at 52.9 °C. Further, the “solubility in G1/S (log2)” value with HeLa Kyoto [3] is 0.00352. For the same sequence, the thermal stability score in the data set with HeLa Kyoto [4] (setting [5]) was -0.555; in the data set on HeLa Kyoto [4] (cell cycle stage: mitosis), -1.31.

“MSEQSICQARAAVMVYDDANKKWVPAGGSTGFSRVHIYHHTGNNTFRVVGRKIQDHQVVINCAIPKGLKYNQATQTFHQWRDARQVYGLNFGSKEDANVFASAMMHALEVLNSQETGPTLPRQNSQLPAQVQNGPSQEELEIQRRQLQEQQRQKELERERLERERMERERLERERLERERLERERLEQEQLERERQERERQERLERQERLERQERLERQERLDRERQERQERERLERLERERQERERQEQLEREQLEWERERRISSAAAPASVETPLNSVLGDSSASEPGLQAASQPAETPSQQGIVLGPLAPPPPPPLPPGPAQASVALPPPPGPPPPPPLPSTGPPPPPPPPPLPNQVPPPPPPPPAPPLPASGFFLASMSEDNRPLTGLAAAIAGAKLRKVSRMEDTSFPSGGNAIGVNSASSKTDTGRGNGPLPLGGSGLMEEMSALLARRRRIAEKGSTIETEQKEDKGEDSEPVTSKASSTSTPEPTRKPWERTNTMNGSKSPVISRRDSPRKNQIVFDNRSYDSLHRPKSTPLSQPSANGVQTEGLDYDRLKQDILDEMRKELTKLKEELIDAIRQELSKSNTA [ENAH]”: the “solubility change mitosis (log2)” value in the data set on HeLa Kyoto [1] stood at 0.0923. The figures for the melting temperature with HeLa Kyoto [2] (cell cycle stage: G1/S) and in the data set on HeLa Kyoto [2] (cell cycle stage: mitosis) were 51.7 °C and 51.9 °C, respectively. The “solubility in G1/S (log2)” value with HeLa Kyoto [3] came out at 0.13. Further, the thermal stability score with HeLa Kyoto [4] (setting [5]) is 2.28; in the data set on HeLa Kyoto [4] (cell cycle stage: mitosis), 8.8.

In the case of “MSEREERRFVEIPRESVRLMAESTGLELSDEVAALLAEDVCYRLREATQNSSQFMKHTKRRKLTVEDFNRALRWSSVEAVCGYGSQEALPMRPAREGELYFPEDREVNLVELALATNIPKGCAETAVRVHVSYLDGKGNLAPQGSVPSAVSSLTDDLLKYYHQVTRAVLGDDPQLMKVALQDLQTNSKIGALLPYFVYVVSGVKSVSHDLEQLHRLLQVARSLFRNPHLCLGPYVRCLVGSVLYCVLEPLAASINPLNDHWTLRDGAALLLSHIFWTHGDLVSGLYQHILLSLQKILADPVRPLCCHYGAVVGLHALGWKAVERVLYPHLSTYWTNLQAVLDDYSVSNAQVKADGHKVYGAILVAVERLLKMKAQAAEPNRGGPGGRGCRRLDDLPWDSLLFQESSSGGGAEPSFGSGLPLPPGGAGPEDPSLSVTLADIYRELYAFFGDSLATRFGTGQPAPTAPRPPGDKKEPAAAPDSVRKMPQLTASAIVSPHGDESPRGSGGGGPASASGPAASESRPLPRVHRARGAPRQQGPGTGTRDVFQKSRFAPRGAPHFRFIIAGRQAGRRCRGRLFQTAFPAPYGPSPASRYVQKLPMIGRTSRPARRWALSDYSLYLPL [TAF6L]”, in the data set on HeLa Kyoto [1], the “solubility change mitosis (log2)” value was -0.115. Further, the melting temperature in the data set on HeLa Kyoto [2] (cell cycle stage: G1/S) was 49.3 °C; in the data set on HeLa Kyoto [2] (cell cycle stage: mitosis), 49.5 °C. Moreover, the “solubility in G1/S (log2)” value in the data set on HeLa Kyoto [3] turned out to be 0.0555. The thermal stability score in the data set with HeLa Kyoto [4] (setting [5]) stood at 0.603; with HeLa Kyoto [4] (cell cycle stage: mitosis) it was 1.02.

For “MSESFDCAKCNESLYGRKYIQTDSGPYCVPCYDNTFANTCAECQQLIGHDSRELFYEDRHFHEGCFRCCRCQRSLADEPFTCQDSELLCNDCYCSAFSSQCSACGETVMPGSRKLEYGGQTWHEHCFLCSGCEQPLGSRSFVPDKGAHYCVPCYENKFAPRCARCSKTLTQGGVTYRDQPWHRECLVCTGCQTPLAGQQFTSRDEDPYCVACFGELFAPKCSSCKRPIVGLGGGKYVSFEDRHWHHNCFSCARCSTSLVGQGFVPDGDQVLCQGCSQAGP [FHL3]”, in the data set on HeLa Kyoto [1], the “solubility change mitosis (log2)” value was -0.184. The melting temperature with HeLa Kyoto [2] (cell cycle stage: G1/S) is 57.7 °C; in the data set with HeLa Kyoto [2] (cell cycle stage: mitosis), 56.8 °C. Also, the “solubility in G1/S (log2)” value with HeLa Kyoto [3] was -0.281. Further, the thermal stability score is 0.504 with HeLa Kyoto [4] (setting [5]) and -1.78 with HeLa Kyoto [4] (cell cycle stage: mitosis).
